We go through two molecules from patent publication US20160319041.

For data set [1], the system named is T1, rNFH-SA (engineered protein with residues 426-1066 of the rat NF-H sidearm domain, N-terminal tetra-Cys tag, C-terminal poly-His-Asn tag).
T1 sequence: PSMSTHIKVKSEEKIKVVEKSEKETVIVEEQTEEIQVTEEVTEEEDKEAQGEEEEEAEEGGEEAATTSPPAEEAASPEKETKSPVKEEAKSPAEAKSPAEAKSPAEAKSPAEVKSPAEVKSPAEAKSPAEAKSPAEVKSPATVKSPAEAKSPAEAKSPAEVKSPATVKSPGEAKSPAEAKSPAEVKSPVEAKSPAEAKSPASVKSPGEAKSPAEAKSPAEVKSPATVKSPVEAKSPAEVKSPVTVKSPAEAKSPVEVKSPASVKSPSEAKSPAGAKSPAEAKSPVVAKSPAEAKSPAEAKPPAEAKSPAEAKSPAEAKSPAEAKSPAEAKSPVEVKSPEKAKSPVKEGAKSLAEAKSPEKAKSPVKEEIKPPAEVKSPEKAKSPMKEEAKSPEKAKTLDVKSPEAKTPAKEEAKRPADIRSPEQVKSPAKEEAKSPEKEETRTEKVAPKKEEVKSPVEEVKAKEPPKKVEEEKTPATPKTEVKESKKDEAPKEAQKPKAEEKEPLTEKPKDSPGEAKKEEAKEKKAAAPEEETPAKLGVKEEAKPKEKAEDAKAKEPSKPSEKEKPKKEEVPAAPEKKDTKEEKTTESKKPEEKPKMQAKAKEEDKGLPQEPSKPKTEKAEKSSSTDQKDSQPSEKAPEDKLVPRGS

Data set [2] concerns the target T2, rNFH-SA (engineered protein with residues 426-1066 of the rat NF-H sidearm domain, N-terminal tetra-Cys tag, C-terminal poly-His-Asn tag).
T2 chain: T1 sequence

For thrombin, the “loss of HN-tag immunofluorescence; brush height by AFM” value in data set [1] is reported as “addition of thrombin produced a loss of fluorescence (indicating successful enzymatic cleavage) without producing a significant change in brush height by AFM”.

B1: clostripain (protein)
chain: NKNQKVTIMYYCDADNNLEGSLLNDIEEMKTGYKDSPNLNLIALVDRSPRYSSDEKVLGEDFSDTRLYKIEHNKANRLDGKNEFPEISTTSKYEANMGDPEVLKKFIDYCKSNYEADKYVLIMANHGGGAREKSNPRLNRAICWDDSNLDKNGEADCLYMGEISDHLTEKQSVDLLAFDACLMGTAEVAYQYRPGNGGFSADTLVASSPVVWGPGFKYDKIFDRIKAGGGTNNEDDLTLGGKEQNFDPATITNEQLGALFVEEQRDSTHANGRYDQHLSFYDLKKAESVKRAIDNLAVNLSNENKKSEIEKLRGSGIHTDLMHYFDEYSEGEWVEYPYFDVYDLCEKINKSENFSSKTKDLASNAMNKLNEMIVYSFGDPSNNFKEGKNGLSIFLPNGDKKYSTYYTSTKIPHWTMQSWYNSIDTVKYGLNPYGKLSWCKDGQDPEINKVGNWFELLDSWFDKTNDVTGGVNHYQW
For the molecule B1, in data set [2], the “loss of HN-tag immunofluorescence” value was “addition of clostripain produced the same loss of fluorescence” and the “reduction of brush height by AFM” value was “reducing brush height by 20%”.
